According to patent publication US20190127480A1 (Regeneron, published 2019):

T1: soluble heterodimeric hCD3ε/δ.mFc protein (human)
T1 construct: also called soluble human CD3; soluble heterodimeric CD3 protein
T1 chain 1: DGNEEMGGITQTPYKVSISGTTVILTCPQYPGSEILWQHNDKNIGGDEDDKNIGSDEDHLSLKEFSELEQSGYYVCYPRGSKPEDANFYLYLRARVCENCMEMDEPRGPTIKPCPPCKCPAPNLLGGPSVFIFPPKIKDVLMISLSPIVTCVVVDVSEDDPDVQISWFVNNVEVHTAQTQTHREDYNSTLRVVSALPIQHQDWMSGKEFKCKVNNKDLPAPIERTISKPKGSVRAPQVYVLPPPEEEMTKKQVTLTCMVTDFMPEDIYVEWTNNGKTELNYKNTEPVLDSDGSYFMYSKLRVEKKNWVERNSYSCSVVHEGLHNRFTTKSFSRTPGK
T1 chain 2: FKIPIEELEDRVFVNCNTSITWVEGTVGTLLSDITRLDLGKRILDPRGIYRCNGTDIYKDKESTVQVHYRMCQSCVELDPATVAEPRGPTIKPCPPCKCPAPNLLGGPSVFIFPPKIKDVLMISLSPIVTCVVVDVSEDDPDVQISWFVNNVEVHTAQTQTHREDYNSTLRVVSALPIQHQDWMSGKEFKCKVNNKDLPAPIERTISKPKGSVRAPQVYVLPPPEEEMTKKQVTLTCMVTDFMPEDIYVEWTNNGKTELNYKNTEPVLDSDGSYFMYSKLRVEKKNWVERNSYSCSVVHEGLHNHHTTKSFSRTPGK


Legend:
[1] = target: T1, soluble heterodimeric hCD3ε/δ.mFc …; assay: SPR MASS-1, 37 C, antigen-capture format
Protocol: Measurements were conducted on a Sierra Sensors MASS-1 instrument.
In the antigen-capture format, the MASS-1 high-density amine sensor surface was derivatized with a goat anti-mouse IgG2a polyclonal antibody (Southern Biotech). Soluble heterodimeric CD3 protein was captured and the respective antibodies were injected over the captured antigen.
(§1) Kinetic association (kₐ) and dissociation (kd) rate constants were determined by processing and fitting the data to a 1:1 binding model using MASS-1 AnalyserR2 curve fitting software. Binding dissociation equilibrium constants (KD) and dissociative half-lives (t_{1/2}) were calculated from the kinetic rate constants as: KD (M)=kd/kₐ; and t_{1/2} (min)=(ln 2/(60*kd).

[2] = target: T2, human CD3 on CD3-expressing cells (Jurkat, human T cells) (human, UniProt P07766 23-207; P04234 22-171); assay: cell-based or functional assay
Target sequence in this assay (P07766 23-207 limits assumed, chain 1 of 2): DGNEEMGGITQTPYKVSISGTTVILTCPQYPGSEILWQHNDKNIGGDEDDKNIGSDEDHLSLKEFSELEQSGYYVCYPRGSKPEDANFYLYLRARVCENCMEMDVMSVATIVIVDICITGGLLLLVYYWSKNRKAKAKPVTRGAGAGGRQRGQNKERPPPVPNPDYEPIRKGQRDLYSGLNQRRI
Target sequence in this assay (P04234 22-171 limits assumed, chain 2 of 2): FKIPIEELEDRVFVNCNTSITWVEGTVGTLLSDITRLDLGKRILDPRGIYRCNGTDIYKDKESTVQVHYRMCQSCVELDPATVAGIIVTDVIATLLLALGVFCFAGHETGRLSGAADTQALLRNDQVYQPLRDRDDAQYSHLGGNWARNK

[3] = target: T3, human PSMA on PSMA-expressing cells (human, UniProt Q04609 1-750); assay: cell-based or functional assay
T3 sequence (Q04609 whole entry): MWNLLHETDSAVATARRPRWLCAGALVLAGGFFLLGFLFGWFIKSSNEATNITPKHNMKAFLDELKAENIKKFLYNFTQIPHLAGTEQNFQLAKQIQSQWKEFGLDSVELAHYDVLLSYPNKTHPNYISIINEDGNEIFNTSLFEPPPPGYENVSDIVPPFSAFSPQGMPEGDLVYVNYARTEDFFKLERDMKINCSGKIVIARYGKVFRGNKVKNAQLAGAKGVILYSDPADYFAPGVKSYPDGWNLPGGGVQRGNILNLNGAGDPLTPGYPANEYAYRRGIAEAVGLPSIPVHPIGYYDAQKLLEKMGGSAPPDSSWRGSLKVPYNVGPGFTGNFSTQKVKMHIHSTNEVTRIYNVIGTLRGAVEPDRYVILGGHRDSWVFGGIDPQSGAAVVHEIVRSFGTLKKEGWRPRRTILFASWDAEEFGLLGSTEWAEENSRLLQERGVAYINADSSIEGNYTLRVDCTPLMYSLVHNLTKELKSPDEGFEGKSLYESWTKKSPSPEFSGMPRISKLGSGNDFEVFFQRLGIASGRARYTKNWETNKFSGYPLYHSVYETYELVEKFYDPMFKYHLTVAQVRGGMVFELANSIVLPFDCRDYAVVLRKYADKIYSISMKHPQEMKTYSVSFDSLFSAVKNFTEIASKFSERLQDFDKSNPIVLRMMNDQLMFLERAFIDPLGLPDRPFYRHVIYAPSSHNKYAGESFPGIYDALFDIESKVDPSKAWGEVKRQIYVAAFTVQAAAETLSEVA

[4] = target: T2, human CD3 on CD3-expressing cells …; assay: FACS on Jurkat cells
How it was run: (§2)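 Jurkat (human CD3), cynomolgus T or PSMA-expressing cells (2×10⁵/well) incubated 30 min at 4° C with serially diluted bispecific antibodies, then 30 min with PE anti-human Fcγ F(ab′)₂. Single-cell gated flow cytometry; EC₅₀ from 4-parameter non-linear regression.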

[5] = target: T3, human PSMA on PSMA-expressing cells; assay: FACS on B16F10.9/PSMA cells
How it was run: as §2

[6] = target: T4, human PSMA expressed with an N-terminal hexahistidine tag (6h.hPSMA, R&D) (human, UniProt Q04609 44-750); assay: SPR Biacore T-200, 37 C, antibody-capture (anti-mouse Fc), 6h.hPSMA as analyte
T4 construct: Bought soluble protein; also called soluble human PSMA; human PSMA protein
T4 sequence (Q04609 other isoform, or with tags, fused parts or gaps limits assumed): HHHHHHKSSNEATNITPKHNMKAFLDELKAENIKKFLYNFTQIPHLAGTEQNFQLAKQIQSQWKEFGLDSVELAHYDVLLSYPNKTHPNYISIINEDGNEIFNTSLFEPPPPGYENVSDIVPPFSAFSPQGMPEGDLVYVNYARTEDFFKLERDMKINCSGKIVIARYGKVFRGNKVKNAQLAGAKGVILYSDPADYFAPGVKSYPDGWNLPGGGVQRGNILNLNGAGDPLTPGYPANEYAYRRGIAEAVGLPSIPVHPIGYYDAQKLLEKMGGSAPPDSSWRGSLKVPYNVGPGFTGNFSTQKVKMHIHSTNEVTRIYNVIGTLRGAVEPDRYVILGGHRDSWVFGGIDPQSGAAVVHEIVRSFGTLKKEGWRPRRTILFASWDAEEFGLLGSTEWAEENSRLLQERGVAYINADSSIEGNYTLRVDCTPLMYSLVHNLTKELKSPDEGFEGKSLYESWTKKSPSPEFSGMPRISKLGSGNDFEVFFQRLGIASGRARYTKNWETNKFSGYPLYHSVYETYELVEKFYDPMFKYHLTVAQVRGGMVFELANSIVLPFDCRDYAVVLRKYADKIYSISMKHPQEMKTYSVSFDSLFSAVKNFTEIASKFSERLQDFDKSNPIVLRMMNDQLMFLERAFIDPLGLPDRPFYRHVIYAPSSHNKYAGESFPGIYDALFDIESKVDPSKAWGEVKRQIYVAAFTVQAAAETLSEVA
Protocol: Briefly, a CM5 Biacore™ sensor surface was derivatized via amine coupling with a monoclonal mouse anti-human Fc antibody (GE, # BR-1008-39) or monoclonal goat anti-mouse Fc antibody (GE, # BR-1008-38) to capture purified anti-PSMA antibodies. Binding studies were performed in HBSP++ buffer composed of 0.01M HEPES, 0.15M NaCl, 2 mM Ca²⁺, 2 mM Mg²⁺, 0.05% v/v Surfactant P20, pH7.4. Varying concentrations of human PSMA expressed with an N-terminal hexahistidine tag (6h.hPSMA, R&D) prepared in HBSP++ running buffer (ranging from 50 to 0.78 nM, 4-fold dilutions) were injected over the anti-PSMA antibody captured surface at a flow rate of 30 μL/minute. Antibody-reagent association was monitored for 2 minutes while dissociation in HBSP++ running buffer was monitored for 8 minutes.
as §1, with “by” for “by processing and”, “real-time sensorgrams” for “data”, “Scrubber 2.0c” for “MASS-1 AnalyserR2”, “(t½)” for “(t_{1/2})”

[7] = target: T5, cynomolgus CD3 on cynomolgus T cells (cynomolgus, UniProt Q95LI5 22-198; Q95LI8 22-171); assay: FACS on cynomolgus T cells
T5 construct: whole, on cells; also called Cyno T-cells; monkey T-cells
T5 sequence (Q95LI5 22-198, form in doubt, chain 1 of 2): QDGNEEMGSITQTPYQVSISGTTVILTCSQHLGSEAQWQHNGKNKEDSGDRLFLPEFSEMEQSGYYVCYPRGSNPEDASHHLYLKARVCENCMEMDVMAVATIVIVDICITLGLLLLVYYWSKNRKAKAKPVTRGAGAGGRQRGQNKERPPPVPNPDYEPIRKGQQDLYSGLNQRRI
T5 sequence (Q95LI8 22-171, form in doubt, chain 2 of 2): as the sequence (P04234 22-171 limits assumed, chain 2 of 2) above, with I5V, N15K, I20V, S32T, D33N, I34N, T64A, S74N, V83L, H141R counted along it
Protocol: Briefly, 2×10⁵ cells/well of human CD3-expressing Jurkat, cynomolgus T, or human PSMA-specific expressing cells were incubated with a serial dilution of bispecific antibodies for 30 min at 4° C. After incubation, cells were washed and a goat F(ab′)₂ anti-human Fcγ PE labeled secondary (Jackson Immunolabs) was added to the cells for an additional 30 min. Next, cells were washed, re-suspended in cold PBS+1% BSA and analyzed via flow cytometry on a BD FACS Canto II.
For FACS analysis, cells were gated by forward scatter height vs. forward scatter area for single events selection, followed by side and forward scatters. The EC₅₀ for cell binding titration was determined using Prism software. Values were calculated using 4-parameter non-linear regression analysis.

[8] = target: T1, soluble heterodimeric hCD3ε/δ.mFc …; assay: SPR MASS-1, 37 C, antigen-capture (hCD3ε/δ.mFc captured), antibody injected
How it was run: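 Soluble heterodimeric CD3 was captured on an anti-mouse IgG2a surface and antibodies injected over it. ka and kd came from a 1:1 binding fit. KD = kd/ka and t1/2 (min) = ln 2/(60*kd).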

Row | binding result [1] | T cell activation EC50 [2] [nM] | C4-2 Cell depletion EC50 [3] [nM] | EC50 [4] [nM] | EC50 [5] [nM] | binding result [4] | further results | Binder
1 | no binding | 0.0134 | 0.0215 | ~1000 | 1.31 | – | 22RV1 Cell depletion EC50 [3]: 0.00631 nM; TrampC2.PSMA Cell depletion EC50 [3]: 0.0115 nM | BSPSMA/CD3-004 (bispecific antibody, IgG4, V domains shown, modified (chimeric) IgG4 Fc domain; also called PSMA-VH-11810 x CD3-VH-G5) VH 1: QVQLVESGGGVVQPGRSLRLSCAASGFTFSSYGMHWVRQAPGKGLEWVAVISYAGNNKYYADSVKGRFTVSRDNSKKTLYLQMNSLRSEDTAVYYCAKDSYYDFLTDPDVLDIWGQGTMVTVSS VH 2: EVQLVESGGGLVQPGRSLRLSCAASGFTFDDYSMHWVRQAPGKGLEWVSGISWNSGSIGYADSVKGRFTISRDNAKNSLYLQMNSLRAEDTALYYCAKDGSGYGKFYYYGMDVWGQGTTVTVSS VL: DIQMTQSPSSLSASVGDSVTITCRASQSINNYLNWYQQKPGKAPKLLIYTASSLLSGVPSRFSGSGSGTDFTLTISGLHPEDFATYFCQQSFSTPPITFGQGTRLDIK
2 | – | – | – | – | – | – | Kd [6]: 25.8 nM; koff [6]: 0.00406 s⁻¹; kon [6]: 157000 M⁻¹ s⁻¹; t1/2 [6]: 2.8 min | H1M11900N (antibody, mouse IgG1, V domains shown, human variable / mouse constant region (H1M: mouse IgG1 Fc)) VH: EVQLVESGGALVQTGGSLRLSCVASGFTFSNYWMSWVRQSPGKGLQWVASIKKDGSDEDYVDSVKGRFTISRDNAENSLYLQMTSLRIEDTAVYYCARFISAVGVDWGQGALVTVSS VL: DIQMTQSPSSLSASVGDSVTITCRASQSINNYLNWYQQKPGKAPKLLIYTASSLLSGVPSRFSGSGSGTDFTLTISGLHPEDFATYFCQQSFSTPPITFGQGTRLDIK
3 | no binding | 0.0185 | – | – | 1.9 | no binding | – | BSPSMA/CD3-300 (bispecific antibody, IgG4, V domains shown, modified (chimeric) IgG4 Fc domain; also called PSMA-VH-11810 x CD3-VH-G3) VH 1: QVQLVESGGGVVQPGRSLRLSCAASGFTFSSYGMHWVRQAPGKGLEWVAVISYAGNNKYYADSVKGRFTVSRDNSKKTLYLQMNSLRSEDTAVYYCAKDSYYDFLTDPDVLDIWGQGTMVTVSS VH 2: EVQLVESGGGLVQPGRSLRLSCAASGFTFDDYSMHWVRQAPGKGLEWVSGISWNSGSIGYADSVKGRFTISRDNAKNSLYLQMNSLRAEDTALYYCAKDGSGYGYFYYYGMDVWGQGTTVTVSS VL: DIQMTQSPSSLSASVGDSVTITCRASQSINNYLNWYQQKPGKAPKLLIYTASSLLSGVPSRFSGSGSGTDFTLTISGLHPEDFATYFCQQSFSTPPITFGQGTRLDIK
4 | – | 0.00231 | 0.00874 | 102 | 1.25 | – | EC50 [7]: 2170 nM; Kd [8]: 122 nM; T½ [8]: 4.7 min; koff [8]: 0.00248 s⁻¹; kon [8]: 20300 M⁻¹ s⁻¹ | BSPSMA/CD3-1300 (bispecific antibody, IgG4, V domains shown, modified (chimeric) IgG4 Fc domain; also called PSMA-VH-11810 x CD3-VH-G13) VH 1: QVQLVESGGGVVQPGRSLRLSCAASGFTFSSYGMHWVRQAPGKGLEWVAVISYAGNNKYYADSVKGRFTVSRDNSKKTLYLQMNSLRSEDTAVYYCAKDSYYDFLTDPDVLDIWGQGTMVTVSS VH 2: EVQLVESGGGLVQPGRSLRLSCAASGFTFDDYSMHWVRQAPGKGLEWVSGISWNSGSIGYADSVKGRFTISRDNAKNSLYLQMNSLRAEDTALYYCAKYGSGYGKFYYYGLDVWGQGTTVTVSS VL: DIQMTQSPSSLSASVGDSVTITCRASQSINNYLNWYQQKPGKAPKLLIYTASSLLSGVPSRFSGSGSGTDFTLTISGLHPEDFATYFCQQSFSTPPITFGQGTRLDIK
5 | no binding | – | – | – | 1.72 | no binding | – | BSPSMA/CD3-400 (bispecific antibody, IgG4, V domains shown, modified (chimeric) IgG4 Fc domain; also called PSMA-VH-11810 x CD3-VH-G4) VH 1: QVQLVESGGGVVQPGRSLRLSCAASGFTFSSYGMHWVRQAPGKGLEWVAVISYAGNNKYYADSVKGRFTVSRDNSKKTLYLQMNSLRSEDTAVYYCAKDSYYDFLTDPDVLDIWGQGTMVTVSS VH 2: EVQLVESGGGLVQPGRSLRLSCAASGFTFDDYAMHWVRQAPGKGLEWVSGISWNSGSIGYADSVKGRFTISRDNAKNSLYLQMNSLRAEDTALYYCAKDGSGYGKFYYYGMDVWGQGTTVTVSS VL: DIQMTQSPSSLSASVGDSVTITCRASQSINNYLNWYQQKPGKAPKLLIYTASSLLSGVPSRFSGSGSGTDFTLTISGLHPEDFATYFCQQSFSTPPITFGQGTRLDIK
6 | – | 0.00389 | 0.00737 | 200 | 1.34 | – | EC50 [7]: 3350 nM; Kd [8]: 65.2 nM; T½ [8]: 3.8 min; koff [8]: 0.00307 s⁻¹; kon [8]: 47000 M⁻¹ s⁻¹; 22RV1 Cell depletion EC50 [3]: 0.00207 nM | BSPSMA/CD3-1700 (bispecific antibody, IgG4, V domains shown, modified (chimeric) IgG4 Fc domain; also called PSMA-VH-11810 x CD3-VH-G17) VH 1: QVQLVESGGGVVQPGRSLRLSCAASGFTFSSYGMHWVRQAPGKGLEWVAVISYAGNNKYYADSVKGRFTVSRDNSKKTLYLQMNSLRSEDTAVYYCAKDSYYDFLTDPDVLDIWGQGTMVTVSS VH 2: EVQLVESGGGLVQPGRSLRLSCAASGFTFDDYSMHWVRQAPGKGLEWVSGISWNSGSKGYADSVKGRFTISRDNAKNSLYLQMNSLRAEDTALYYCAKYGSGYGKFYYYGMDVWGQGTTVTVSS VL: DIQMTQSPSSLSASVGDSVTITCRASQSINNYLNWYQQKPGKAPKLLIYTASSLLSGVPSRFSGSGSGTDFTLTISGLHPEDFATYFCQQSFSTPPITFGQGTRLDIK
7 | no binding | – | – | 126 | 2.16 | – | – | BSPSMA/CD3-1800 (bispecific antibody, IgG4, V domains shown, modified (chimeric) IgG4 Fc domain; also called PSMA-VH-11810 x CD3-VH-G18) VH 1: QVQLVESGGGVVQPGRSLRLSCAASGFTFSSYGMHWVRQAPGKGLEWVAVISYAGNNKYYADSVKGRFTVSRDNSKKTLYLQMNSLRSEDTAVYYCAKDSYYDFLTDPDVLDIWGQGTMVTVSS VH 2: EVQLVESGGGLVQPGRSLRLSCAASGFTFDDYSMHWVRQAPGKGLEWVSGISWNSGSIGYADSVKGRFTISRDNAKNSLYLQMNSLRAEDTALYYCAKDGSGYGKFYYYGLDVWGQGTTVTVSS VL: DIQMTQSPSSLSASVGDSVTITCRASQSINNYLNWYQQKPGKAPKLLIYTASSLLSGVPSRFSGSGSGTDFTLTISGLHPEDFATYFCQQSFSTPPITFGQGTRLDIK
8 | no binding | – | – | – | 1.88 | no binding | – | BSPSMA/CD3-200 (bispecific antibody, IgG4, V domains shown, modified (chimeric) IgG4 Fc domain; also called PSMA-VH-11810 x CD3-VH-G2) VH 1: QVQLVESGGGVVQPGRSLRLSCAASGFTFSSYGMHWVRQAPGKGLEWVAVISYAGNNKYYADSVKGRFTVSRDNSKKTLYLQMNSLRSEDTAVYYCAKDSYYDFLTDPDVLDIWGQGTMVTVSS VH 2: EVQLVESGGGLVQPGRSLRLSCAASGFTFDDYAMHWVRQAPGKGLEWVSGISWNSGSIGYADSVKGRFTISRDNAKNSLYLQMNSLRAEDTALYYCAKDGSGYGYFYYYGMDVWGQGTTVTVSS VL: DIQMTQSPSSLSASVGDSVTITCRASQSINNYLNWYQQKPGKAPKLLIYTASSLLSGVPSRFSGSGSGTDFTLTISGLHPEDFATYFCQQSFSTPPITFGQGTRLDIK
